# Measurements taken from patent publication US11866760B2, “Microorganisms for the production of insect pheromones and related compounds” (Provivi, Inc., priority 2017, dated 2024).
# Experiments:
# S. cerevisiae ΔOLE1 = assay: ΔOLE1 growth complementation assay without UFA; format: cell-based, Saccharomyces cerevisiae
# Description: S. cerevisiae ΔOLE1 (MATA OLE1::LEU2 ura3-52 his4) was used as an expression host. A synthetic expression cassette termed pOLE1 (FIG. 10, SEQ ID NO: 4) which comprises the OLE1 promoter region (SEQ ID NOs: 5 and 6), nucleotides encoding for 27 N-terminal amino acids of the OLE1 leader sequence (SEQ ID NO: 7), and a VPS13 terminator sequence (SEQ ID NO: 8) was created, and cloned into pESC-URA vector in between SacI and EcoRI sites. To test the functionality of the pOLE1 cassette, Dasher GFP synthon was inserted in between SpeI and NotI sites to create pOLE1-GFP plasmid. Competent ΔOLE1 was transformed with pOLE1-GFP, and plated on CM-Ura glucose agar plate (Teknova) containing UFA (20 mm CM-URA glucose agar plate was coated with 100 μL CM-Ura glucose medium containing 1% tergitol, and 3 μL palmitoleic acid). […] Validation of ΔOLE1 complementation was performed by restoring OLE1 activity. Specifically, native S. cerevisiae OLE1 synthon was inserted into pOLE1 cassette devoid of the leader sequence to create pOLE1-OLE1 plasmid. After transformation of ΔOLE1, and selection on CM-Ura glucose agar containing UFA, single colonies were patched onto YPD and CM-Ura glucose without UFA. After incubation at 30° C. for 5 days, growth was observed (FIG. 11A-FIG. 11E). As expected, Dasher GFP expression could not complement ΔOLE1 growth without UFA (FIG. 11A-FIG. 11E). DNA sequences which encode for desaturase variants were synthesized (to include nucleotide changes which remove restriction sites used for cloning purposes), and cloned into pOLE1 using SpeI-NotI sites (Genscript, SEQ ID NOs: 9-13). Complementation assay of ΔOLE1 with insect desaturases were performed in the same way as with OLE1 desaturase.
# palmitic acid [1] = assay: in vivo bioconversion assay of desaturases in C. tropicalis SPV053; format: cell-based, Candida tropicalis
# Description: Functional expression of the heterologous desaturases was characterized by a series of in vivo bioconversion experiments. C. tropicalis SPV053 derived stains expressing insect desaturases were cultured in rich (YPD) or defined (CM glucose) media supplemented with ethanol (for induction) and saturated acid substrates (palmitic acid, methyl palmitate, methyl myristate). Small scale (2 ml) cultures were cultivated for a total of 72 hours in 24 deep well plates with substrate added after the initial 24 hours.
# Positive isolates were re-patched onto YPD+300 μg/ml Zeocin and grown overnight and then stored at 4° C. Strains were inoculated from patch plates into 2 ml of YPD in 24 deep well plates (square well, pyramid bottom). Three positive clones were inoculated for each desaturase variant and the mCherry expressing control strain. Deep well plates were incubated at 30° C., 1000 rpm, and 80% humidity in the Infors HT Multitron Pro plate shaker for 24 hrs. After 24 hrs of incubation, cultures were split into equal 1 ml volumes to make two sets of identical plates. Both sets of plates were pelleted by centrifugation at 500×g. One set of plates was resuspended in 2 ml of YPD+0.3% (v/v) ethanol and the second set was resuspended in 2 ml of CM glucose+0.3% ethanol. Ethanol was added at this stage to induce recombinant enzyme expression from the ICL promoter. Cultures were incubated for another 24 hours under the same conditions before 300 mg/L palmitic acid was added to cultures from a 90 g/L stock solution in ethanol. The result was the addition of a fresh 0.3% ethanol in conjunction with the palmitic acid. A subset of strains was also cultured without palmitic acid addition. These cultures had 0.3% ethanol added instead. All cultures were incubated for an additional 24 hrs before a final addition of 0.3% ethanol. After another 24 hr period of incubation, 1.5 ml of each culture was harvested in 1.7 ml microcentrifuge tubes and pelleted. Supernatant was saved in fresh tubes and pellets were processed as described below. A subset of supernatant samples was also extracted to look for free acid in the extracellular medium.
# The mCherry control and confirmed positive variants were rescreened using both palmitic acid and methyl palmitate as substrates. The culturing was conducted as described above with equimolar (1.17 mM) amounts of substrate added from ethanol stock solutions (methyl palmitate 94 g/L stock, 313 mg/L final concentration). The same protocol was also repeated with the full panel of strains using an 84 g/L stock of methyl myristate (C14:0). The final concentration of substrate was again 1.17 mM.
# The in vivo bioconversion assay was scaled up for confirmation of (Z)-11-hexadecenoic acid synthesis. 2 ml YPD seed cultures of strains SPV0302, SPV0303, and SPV0304 (mCherry), […], SPV0305, and SPV0306 (A. transitella Z11 desaturase), and SPV0307, SPV0308, and SPV0309 (H. zea Z11 desaturase) were grown overnight at 30° C., 1000 rpm, 80% humidity in the Infors HT Multitron plate shaker. 200 μl of overnight culture from each of the three clonal isolates was pooled and inoculated into a single 125 ml baffled flask containing 20 ml YPD. The resulting three flasks were grown for 24 hrs at 30° C. and 250 rpm (Infors Flask shaker). Cultures were pelleted by centrifugation at 500×g and resuspended in 20 ml of YPD+0.3% (v/v) ethanol and returned to 125 ml baffled shake flasks. Cultures were incubated for an additional 24 hours before addition of 300 mg/L palmitic acid in a 90 g/L stock in ethanol (221 μl per flask). After 24 hours of incubation another 0.3% (v/v) ethanol (221 μl) was added to each flask for sustained induction. Flasks were incubated for an additional 24 hours before cells were harvested for FAME analysis and DMDS derivatization.
# Total lipid composition as well as the (Z)-11-hexadecenoic acid quantification was based on modified procedures by Moss et al. (1982) and Yousuf et al (2010). […]
# palmitic acid [2] = assay: in vivo bioconversion of palmitic acid into Z11-hexadecenoic acid in Y. lipolytica SPV140 and SPV300; format: cell-based, Yarrowia lipolytica; conditions: from ~500 mg/L palmitic acid substrate, 24 well plate assay
# Description: Functional activity was assessed by a modification of the protocol used for transmembrane desaturase expression in C. viswanathii SPV053 (See Example 6). Briefly, Y. lipolytica SPV140 and SPV300 derived stains expressing insect desaturases were cultured in rich (YPD) to generate biomass. Using the YPD generated biomass, small scale (2 ml) cultures were cultivated with palmitic acid for a total of 48 hours in 24 deep well plates (See Materials & Methods for detail).
# Positive isolates were re-patched onto YPD, grown overnight, and then stored at 4° C. Strains were inoculated from patch plates into 2 ml of YPD in 24 deep well plates (square well, pyramid bottom). Three positive clones were inoculated for each desaturase variant. Three isolates of pPV101 in SPV140 and the parent SPV300 were used as negative controls. Deep well plates were incubated at 28° C. and 250 rpm in the Infors Multitron refrigerated flask shaker for 24 hrs. […] Final cell densities were measured with the Tecan Infinite 200pro plate reader. […]
# Total lipid composition as well as the (Z)-11-hexadecenoic acid quantification was based on modified procedures by Moss et al. (1982) and Yousuf et al (2010). […] For the analysis of lipids and the quantification of fatty acids 50 μL of 0.2 M TMSH (trimethylsulfonium hydroxide in methanol) was added and the sample analyzed by GC-FID.
# [3] = SPV053, supplementation not stated
# [4] = SPV053, with palmitic acid supplementation
molecule,measurement,setting,value
"H. zea desaturase: Helicoverpa zea Z11 desaturase (AAF81787), SEQ ID NO: 54 (protein, listed as Helicoverpa zea) MAQSYQSTTVLSEEKELTLQHLVPQASPRKYQIVYPNLITFGYWHIAGLYGLYLCFTSAKWATILFSYILFVLAEIGITAGAHRLWAHKTYKAKLPLEILLMVFNSIAFQNSAIDWVRDHRLHHKYSDTDADPHNASRGFFYSHVGWLLVRKHPEVKKRGKELNMSDIYNNPVLRFQKKYAIPFIGAVCFALPTMIPVYFWGETWSNAWHITMLRYIMNLNVTFLVNSAAHIWGNKPYDAKILPAQNVAVSVATGGEGFHNYHHVFPWDYRAAELGNNSLNLTTKFIDLFAAIGWAYDLKTVSEDMIKQRIKRTGDGTDLWGHEQNCDEVWDVKDKSS",rescue of ΔOLE1 growth without UFA,S. cerevisiae ΔOLE1; minimal medium (CM-Ura glucose) agar plate,conferred growth without UFA
same,rescue of ΔOLE1 growth without UFA,S. cerevisiae ΔOLE1; rich medium (YPD) agar plate,conferred growth without UFA
same,(Z)-11-hexadecenoic acid titer,palmitic acid [1]; SPV053,~5.96 mg/L
same,activity on myristoyl-CoA,"palmitic acid [1]; SPV053, methyl myristate substrate",some activity on myristoyl-CoA
same,(Z)-11/(Z)-9 hexadecenoic acid ratio,"palmitic acid [1]; SPV053, palmitic acid supplemented",1.4
same,(Z)-9-hexadecenoic acid in C16-fatty acid composition,palmitic acid [1]; [3],~30.91%
same,(Z)-11-hexadecenoic acid in C16-fatty acid composition,palmitic acid [1]; [3],~19.1%
same,hexadecanoic acid in C16-fatty acid composition,palmitic acid [1]; [3],approximately 50.0%
same,(Z)-9-hexadecenoic acid in C16-fatty acid composition,palmitic acid [1]; [4],17.5%
same,(Z)-11-hexadecenoic acid in C16-fatty acid composition,palmitic acid [1]; [4],24.4%
same,hexadecanoic acid in C16-fatty acid composition,palmitic acid [1]; [4],58.1%
same,(Z)-11/(Z)-9 hexadecenoic acid ratio,"palmitic acid [1]; SPV053, without palmitic acid supplementation",0.6
same,Z11-hexadecenoic acid production,palmitic acid [2],~100 mg/L
